Experimental data published in paper PMC1188515.

What was measured:
ScMre11p [1] = target: T1, ScMre11p (Saccharomyces cerevisiae, UniProt P32829 1-692); test: EMSA
T1 sequence: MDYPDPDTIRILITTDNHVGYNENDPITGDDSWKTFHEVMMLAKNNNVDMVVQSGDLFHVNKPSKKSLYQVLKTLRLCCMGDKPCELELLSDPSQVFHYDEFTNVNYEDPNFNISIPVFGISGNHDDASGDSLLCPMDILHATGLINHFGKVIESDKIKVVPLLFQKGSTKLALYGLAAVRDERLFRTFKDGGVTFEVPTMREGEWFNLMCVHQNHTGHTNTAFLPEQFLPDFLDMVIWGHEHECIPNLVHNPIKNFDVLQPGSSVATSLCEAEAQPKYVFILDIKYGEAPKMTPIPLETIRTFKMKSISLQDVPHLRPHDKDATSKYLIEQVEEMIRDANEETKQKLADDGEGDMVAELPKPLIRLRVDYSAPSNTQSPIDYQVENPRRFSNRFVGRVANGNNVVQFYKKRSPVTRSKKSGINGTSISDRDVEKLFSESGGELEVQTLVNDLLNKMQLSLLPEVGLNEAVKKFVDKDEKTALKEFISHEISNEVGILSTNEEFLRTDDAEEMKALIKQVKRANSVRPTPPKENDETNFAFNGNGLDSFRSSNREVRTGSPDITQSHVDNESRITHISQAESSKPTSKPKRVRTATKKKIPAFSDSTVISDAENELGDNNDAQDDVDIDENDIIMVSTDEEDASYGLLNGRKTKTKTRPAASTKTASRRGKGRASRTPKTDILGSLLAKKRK

ScMre11p [2] = target: T1, ScMre11p; test: EMSA; remark: listed apart in the source

B1: 6G3 G4 DNA (structured_DNA)
DNA: AATTCTGGGTGTGTGGGTGTGTGGGTGTGTGGGTGTGTGGGTGTGTGGGTGTGG
- binding result (ScMre11p [1]): binds

Binder: AATTCTGGGTGTGTGGGTGTGTGGGTGTGTGGGTGTGG (structured_DNA) [4G3 G4 DNA]
- Kd (ScMre11p [2]): 70 nM
